Experimental findings from patent US20130216513A1 (Biogen, published 2013) are described below.

The assay deals with T1, GPIIbIIIa on activated human platelets (human, UniProt P08514 32-1039; P05106 27-788).
T1 construct: whole, on cells; also called active form of GPIIbIIIa
Nature of the assay: FACS on activated human platelets, FITC-labeled FVII antibody; reference FVIIaFc (FVII-011); FIG. 44C.

B1: FVII-094 (other)
chain 1: ANAFLEELRPGSLERECKEEQCSFEEAREIFKDAERTKLFWISYSDGDQCASSPCQNGGSCKDQLQSYICFCLPAFEGRNCETHKDDQLICVNENGGCEQYCSDHTGTKRSCRCHEGYSLLADGVSCTPTVEYPCGKIPILEKRNASKPQGR
chain 2: IVGGKVCPKGECPWQVLLLVNGAQLCGGTLINTIWVVSAAHCFDKIKNWRNLIAVLGEHDLSEHDGDEQSRRVAQVIIPSTYVPGTTNHDIALLRLHQPVVLTDHVVPLCLPERTFSERTLAFVRFSLVSGWGQLLDRGATALELMVLNVPRLMTQDCLQQSRKVGDSPNITEYMFCAGYSDGSKDSCKGDSGGPHATHYRGTWYLTGIVSWGQGCATVGHFGVYTRVSQYIEWLQKLMRSEPRPGVLLRAPFPDIGGGGSGGGGSGGGGSGGGGSGGGGSGGGGSAQVQLQESGGGLVQPGGSLRLSCAASGFMFSRYAMSWVRQAPGKGPEWVSGISGSGGSTYYADSVKGRFTVSRDNSKNTLYLQMNSLRAEDTAVYYCARGATYTSRSDVPDQTSFDYWGQGTLVTVSSGSASAPKLEEGEFSEARVSELTQDPAVSVALGQTVRITCQGDSLRNFYASWYQQKPGQAPTLVIYGLSKRPSGIPDRFSASSSGNTASLTITGAQAEDEADYYCLLYYGGGQQGVFGGGTKLTVLRQPKAAPSVTLFPPSSAA
notes: SCE5 at the C-terminus of FVIIa; no Fc; also called pSYN-FVII-094
For the molecule B1, the binding result was “binds”.
